Results from PMC9381478, “A context-dependent and disordered ubiquitin-binding motif” (Cellular and Molecular Life Sciences: CMLS, 2022).

Tests used:
[1] = biological target: T1, ubiquitin (Schizosaccharomyces pombe, UniProt P0CH06); test: NMR titration of 15N-ubiquitin (1H-15N HSQC chemical shift perturbations); assay type: binding, S. pombe; settings: ratio of Kd values for ubiquitin
T1 construct: plasmid coding for S. pombe ubiquitin with an N-terminal 6xhistidine-tag, TEV-cleavage site as well as an N-terminal free cysteine; made in house; host or cells: E. coli BL21(DE3)
Experimental: For interaction of the peptides with ^15N-ubiquitin, the lyophilized peptides were dissolved in MilliQ water and pH adjusted to 7.5. […] For the titrations of ubiquitin with each peptide, except the WT Dss1 peptide, 100 µM ubiquitin in NMR buffer was measured as one end point, and the 1 mM peptide and 100 µM ubiquitin as the other. Then, the peptide sample was titrated into the ubiquitin sample with titration points at 0, 50, 150, 300, 400, 500 and 1000 µM peptide. […] NMR samples were centrifuged 13.000×g for 5 min and transferred to either single-use 5 mm NMR tubes (Bruker) or 3 mm (Shigemi). To prepare NMR samples of ^15 N-labeled ubiquitin with full-length Dss1 and variants, lyophilized proteins were dissolved directly in the NMR buffer. The variants were each dissolved in 510 µL NMR buffer with 100 µM ubiquitin. The concentration of Dss1 in the NMR sample was determined by measuring the absorbance at 280 nm on a ND-1000 NanoDrop spectrophotometer, calibrated with the NMR buffer with 100 µM ubiquitin. The concentration of Dss1 varied between variants, depending on the purification yield. For all titrations, seven points of varying Dss1 concentration were recorded. To prepare NMR samples of ^15N-labeled ubiquitin with Spd1, Spd1 was buffer exchanged to MilliQ using a 3 kDa cut-off Amicon Ultra-0.5 ml centrifugal filter (Merk Millipore), lyophilized and resuspended in NMR buffer with 100 µM ubiquitin. […] For experiments with ubiquitin, 200 µL 1 mM ubiquitin was buffer exchanged to MilliQ water using a 3 kDa cut-off Amicon Ultra-0.5 ml centrifugal filter (Merk Millipore), lyophilized, and subsequently resuspended in 100 µL NMR buffer with 1 mM Dss1 for a final ubiquitin concentration of 2 mM and 1 mM, respectively. All samples were transferred to 3 mm (Shigemi) NMR tubes.
All NMR spectra were recorded on Bruker Avance III HD 600 MHz spectrometer with a Bruker proton-optimized quadruple resonance NMR ‘inverse’ (QCI) cryoprobe, a Bruker Avance III HD 750 MHz spectrometer with a Bruker proton-optimized triple resonance NMR ‘inverse’ (TCI) cryoprobe and a Bruker Avance Neo 800 MHz spectrometer with a Bruker carbon/nitrogen-optimized triple-resonance NMR 'observe' (TXO) cryoprobe. […] All spectra were zero-filled, apodized using cosine bells in all dimensions, Fourier transformed, and the zero-order phase was corrected manually using either nmrDraw, a component of NmrPipe or qMDD if spectra were recorded using non-linear-sampling (NLS). All spectra were analysed using the Analysis software.
The CSPs were fitted to a one-site-binding model using global fit, and the Kd-values are extracted using Eq. 2.2 Δδobs=Δδmax∙Pt+Lt+Kd-Pt+Lt+Kd^2-4Pt∙Lt^1/2/2∙Pt.
Peaks giving rise to large uncertainties in the fit, either due to weak signals or overlap, were removed after a first iteration of fitting, and the fit repeated on the remaining dataset.

[2] = Solubility noted during NMR sample preparation; assay type: physicochemical; settings: NMR buffer; interaction mapped at 30 µM 15N-Spd1

T1 sequence (P0CH06 1-76 limits assumed): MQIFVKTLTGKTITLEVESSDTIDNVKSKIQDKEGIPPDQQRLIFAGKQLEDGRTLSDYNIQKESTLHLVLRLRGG

Row | Molecule | Kd of full-length protein lower than for the peptide alone [1] [times] | solubility [2]
1 | full-length Dss1: recombinant full-length S. pombe Dss1 (N71C) (protein, left off: His6-SUMO, N-terminal, cleaved) MSRAALPSLENLEDDDEFEDFATENWPMKDTELDTGDDTLWENNWDDEDIGDDDFSVQLQAELKKKGVAAC | ~10 | 
2 | Spd1: intrinsically disordered S. pombe protein, sequence printed in b198 (protein, UniProt Q10585 1-124, looked up, full-length) MHSSKRVMTTKTHVEQPESSMRPQLPESIQGSLMDVGMRVRKSISTGYKSKQTTFPAYNPPLYNTVSENIALKNTAFSYEPNGTKRPFEQAIPNYNWANPPQDFEEPEWLKPFDVVMEGTNERL |  | low solubility
